Laboratory results reported in paper PMC8160069, “Ethacrynic acid targets GSTM1 to ameliorate obesity by promoting browning of white adipocytes” (Protein & Cell, 2020).

Target: the molecule itself
Assay: crystal structure; co-crystal structure of celastrol with mouse GSTP1

B1: mouse GSTP1 (enzyme, UniProt P19157 1-210, looked up)
chain: MPPYTIVYFPVRGRCEAMRMLLADQGQSWKEEVVTIDTWMQGLLKPTCLYGQLPKFEDGDLTLYQSNAILRHLGRSLGLYGKNQREAAQMDMVNDGVEDLRGKYVTLIYTNYENGKNDYVKALPGHLKPFETLLSQNQGGKAFIVGDQISFADYNLLDLLLIHQVLAPGCLDNFPLLSAYVARLSARPKIKAFLSSPEHVNRPINGNGKQ
notes: GSTP1 (glutathione S-transferase pi 1), mouse; co-crystallised with celastrol; also called GST pi
binding result: binds
